Source: the supplement of paper PMC10567573

B1: TRIM15 (parent)
chain: QSSGKILLCPLCQEEEQAETPMAP
B2: TRAF3IP2 (parent)
chain: PRPPSNPPARGTLKTSNLPEELRK

Variants of: B1
Assay: protein stability index of a GFP-peptide fusion (GPS, HEK-293T) (PSI 1-6); higher = more stable
Conditions: c terminus: a fixed tail appended
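Also: lentivirally expressed fusions sorted by FACS into six bins by GFP to DsRed ratio, PSI derived from sequencing read proportions per bin multiplied by bin number.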

Protein stability index, by site and new letter:
I6: N 4.13; C 3.94; K 4.23; S 3.39; Q 3.37; Y 4.04; F 3.76; A 4.26; R 3.41; M 3.72
L7: W 3.29; F 3.47; Q 3.94; V 3.48; T 3.31; N 4.21; K 4.51; I 3.4; M 3.51; G 3.9; P 4.42; D 4.35; S 3.39; A 3.65
S2: L 2.67; A 3.52; T 3.34; W 2.38; E 4; N 2.86; Y 2.85; I 2.62; H 3.32; R 3.28; M 2.79
C12: L 4.18; H 4.66; P 5.04; M 4.86; V 4.62; E 5.46; D 4.87; N 4.99
P24: Q 3.41; R 1.71; I 3.85; C 2.47; L 3.09; Y 2.68; F 3.25; G 3.81; M 3.31; E 4.29; S 3.53; D 3.79
L11: Y 3.01; S 4.7; R 4.3; N 5.01; M 3.78; H 3.68; F 3.42; T 4.81; E 4.72; K 4.54; P 5.27; W 3.52; Q 4.24; V 4.09
E14: T 2.46; C 2.55; A 2.43; Q 2.55; K 3.14; G 3.64; V 2.75; P 3.39
Q1: W 3.08; C 2.72; V 2.87; L 3.13; D 3.99; S 3.28; N 3.06; P 2.73; T 3.16; G 3.8; Y 1.58; F 1.4; E 3.98; R 3.35; K 3.46
K5: G 3.77; N 3.46; T 3.06; H 3.17; P 3.65; W 2.45; V 2.85; S 3.44; L 2.86; E 4.56; Y 2.36; I 2.17; F 2.1; A 3.27
M22: V 2.28; I 3.45; E 4.34; Y 3.08; D 4.14; F 2.86; T 4.48
G4: H 2.96; K 4.13; P 3.24; V 2.94; A 3.07; C 4.14; D 4.24; M 3.3; Y 3.4; W 2.21; I 3.34; R 3.72; S 2.86; F 2.49
P21: F 3.13; G 3.19; Q 3.39; K 2.43; L 2.86; C 3.94; E 3.18; A 3; V 3.73; R 1.83; N 3.85; D 3.93; I 2.88
P10: A 3.35; E 4.06; N 4.4; S 3.56; Y 2.71; H 3.42; V 1.82; C 3.77
L8: W 2.93; A 4.32; Y 3.28; N 4.45; K 3.83; S 3.99; H 3.96; Q 4.23; P 4.34; M 3.79; C 3.46
Q13: F 2.61; G 3.46; K 3.85; M 2.84; D 4.25; T 2.69; E 4.64; A 2.77; V 3.91; Y 3.31; I 3.26; H 2.95; W 2.35; L 3.12; R 2.69; S 3.54; N 3.65
C9: P 5.54; F 4.38; S 5.41; I 3.84; W 4.24; Q 3.61; R 5.71; K 5.6; Y 4.36
T20: S 3.5; W 2.16; Y 2.89; R 3.07; N 3.4; H 3.46; D 3.66; K 4; F 2.84; E 3.92; G 2.49; A 3.65
E19: W 1.52; K 3.94; I 2.77; Y 2.96; M 2.19; P 2.34
A18: I 3.98; S 3.74; F 2.19; D 3.76; N 3.44; T 3.61; P 4.04; G 2.73; L 3.25; M 3.1; Y 2.89
E16: S 2.59; C 2.55; T 2.61; G 2.78; D 3.31; I 2.69; L 2.06; F 2.23; W 2.71; M 2.34; Y 3.08; V 2.01
S3: P 3.23; M 3.24; A 3.62; D 3.07; L 3.3; Y 2.82; R 3.73; V 3.57; F 3; C 2.33
E15: T 2.77; G 2.9; W 1.65; A 3.17; P 2.84; H 2.98; L 2.5; D 2.97; K 3.05; C 2.49; S 2.75; R 1.81
A23: T 3.9; S 3.86; N 3.5; Q 3.21; Y 2.94; W 2.91; K 3.63; H 3.67; L 2.97; R 2.6; D 3.96; G 3.52
Q17: A 2.98; H 3.05; D 3.38; G 3.74; E 2.95; S 3.67; R 2.76; Y 2.87; I 2.88; K 3.29; N 3.49

Variants of: B2
Assay: as above
Conditions: c terminus: a fixed tail appended

Protein stability index of substitutions, site by site:
P4: E 4.52; N 4.7; F 4.25; I 4.66; Q 4.88; L 4.58; C 4.84; K 4.91; D 4.7; G 4.54; A 4.79; H 4.5; R 4.49; M 4.39
P1: D 4.6; W 4.76; K 4.63; T 4.88; R 4.44; A 4.49; H 4.64; M 5.07; V 4.42; I 4.59; N 4.59; E 4.43; F 4.31; G 4.89; Y 4.46; Q 4.74; C 4.46; S 4.62; L 4.67
R2: S 5.25; E 4.85; M 5.08; W 4.85; G 5.12; K 4.56; Q 4.59; C 5.19; F 5.09; L 4.2; V 4.63
P3: G 4.82; W 4.83; L 4.5; R 4.54; M 4.42; V 4.79; N 4.29; H 4.02; Q 4.2; E 5.35; I 5.05; Y 4.7; K 4.88; S 4.95; C 5.15; F 4.13; T 4.9; D 5.07; A 5.13
